The record followed here is patent US20240368250A1 (Ablynx, published 2024).

For experiment [1], the target named is Human serum albumin (HSA; Sigma-Aldrich Cat No. A8763) (human, UniProt P02768 25-609). Kind of experiment: SPR Biacore 8K+, HSA on C1 chip, pH 7.4, 1:1 fit.
Experiment [2] addresses Mouse serum albumin (MSA; Albumin Bioscience Cat No. 2601) (mouse, UniProt P07724 25-608). In words: SPR Biacore 8K+, MSA on C1 chip, pH 7.4, 1:1 fit (off-rate only). (In general: SPR reads the build-up and loss of mass on a sensor chip optically.)
The target in experiment [3] is T1, Human FcRn (biotinylated human FcRn) (human, UniProt P61769 21-119).
T1 construct: Biotinylated human FcRn captured on a Series S Sensor Chip SA; also called human neonatal Fc receptor; hFcRn
Kind of experiment: SPR Biacore 8K+, biotinylated hFcRn on SA chip (~500-600 RU), pH 6.0, bivalent analyte fit.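 Note: analytes were Fc proteins binding to biotinylated human FcRn captured on a Series S streptavidin sensor chip.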

For experiment [4], the target named is T1, Human FcRn (biotinylated human FcRn). In words: SPR Biacore 8K+, biotinylated hFcRn on SA chip (~500-600 RU), pH 6.0, bivalent analyte fit (KD1).
Experiment [5] has the same target. In words: SPR Biacore 8K+, biotinylated hFcRn on SA chip (~500-600 RU), pH 6.0, bivalent analyte fit (ka1).
Experiment [6] has the same target. Kind of experiment: SPR Biacore 8K+, biotinylated hFcRn on SA chip (~500-600 RU), pH 6.0, bivalent analyte fit (kd1).
Experiment [7] shares this target. In words: SPR Biacore 8K+, biotinylated hFcRn on SA chip (~700 RU), pH 6.0, bivalent analyte fit.
Experiment [8] shares this target. In words: SPR Biacore 8K+, biotinylated hFcRn on SA chip (~700 RU), pH 6.0, bivalent analyte fit (KD1).
The target is the same in experiment [9]. Kind of experiment: SPR Biacore 8K+, biotinylated hFcRn on SA chip (~700 RU), pH 6.0, bivalent analyte fit (ka1).
Experiment [10] shares this target. In words: SPR Biacore 8K+, biotinylated hFcRn on SA chip (~700 RU), pH 6.0, bivalent analyte fit (kd1).

Where a chain is given by its changes, count along the chain named. Names and notes keep the numbering of the source.

B1: TPP-66148 (Fc fusion)
chain 1: DVQLVESGGGVVQAGGSLSISCAASGGSLSNYVLGWFRQAPGKEREFVAAINWRGDITIGPPNVEGRFTISRDNAKNTGYLQMNSLAPDDTALYYCGAGTPLNPGAYIYDWSYDYWGRGTLVTVSSDKTHTCPPCPAPEAAGGPSVFLFPPKPKDTLMISRTPEVTCVVVDVSQEDPEVQFNWYVDGVEVHNAKTKPREEQFNSTYRVVSVLTVLHQDWLNGKEYKCKVSNKGLPSSIEKTISKAKGQPREPQVYTLPPCQEEMTKNQVSLWCLVKGFYPSDIAVEWESNGQPENNYKTTPPVLDSDGSFFLYSKLTVDKSRWQEGNVFSCSVMHEALHNHYTQKSLSLSLGGGGGSGGGGSGGGGSGGGGSGGGGSGGGGSGGGGSEVQLVESGGGVVQPGGSLRLSCAASGLTFSSYAMGWFRQAPGKERERVVSISRGGGYTYYADSVKGRFTISRDNSKNTVYLQMNSLRPEDTALYYCAAARYWATGSEYEFDYWGQGTLVTVSSA
chain 2: DVQLVESGGGVVQAGGSLSISCAASGGSLSNYVLGWFRQAPGKEREFVAAINWRGDITIGPPNVEGRFTISRDNAKNTGYLQMNSLAPDDTALYYCGAGTPLNPGAYIYDWSYDYWGRGTLVTVSSDKTHTCPPCPAPEAAGGPSVFLFPPKPKDTLMISRTPEVTCVVVDVSQEDPEVQFNWYVDGVEVHNAKTKPREEQFNSTYRVVSVLTVLHQDWLNGKEYKCKVSNKGLPSSIEKTISKAKGQPREPQVCTLPPSQEEMTKNQVSLSCAVKGFYPSDIAVEWESNGQPENNYKTTPPVLDSDGSFFLVSKLTVDKSRWQEGNVFSCSVMHEALHNRFTQKSLSLSLG
notes: IgG4 FALA Fc knob-in-hole, C-terminal ALBX00002 via 35GS
For orientation: koff means a measure of how fast the partners let go of each other. Low values mean a long-lived complex, high ones a short-lived complex. The term kon denotes a measure of how fast the partners come together. Higher therefore signals fast association. B1: the Kd in experiment [1] amounted to 5.1 nM; in [4] it was 1030 nM. Also, the koff in [1] came to 0.000247 s⁻¹; in experiment [2], 0.00187 s⁻¹; in experiment [6], 0.11 s⁻¹. Besides, the kon in [1] was determined as 48500 M⁻¹ s⁻¹; in [5] it was 107000 M⁻¹ s⁻¹. The same molecule showed a KD2 in experiment [3] of 2.14 M. The ka2 in experiment [3] was 3.33e-05 1/RUs. Besides, in experiment [3], the kd2 amounted to 7.12e-05 s⁻¹.

B2: TPP-66151 (Fc fusion)
chain 1: B1 chain 2 with C255Y, S260C, S272W, A274L, V313Y, R341H, F342Y
chain 2: DVQLVESGGGVVQAGGSLSISCAASGGSLSNYVLGWFRQAPGKEREFVAAINWRGDITIGPPNVEGRFTISRDNAKNTGYLQMNSLAPDDTALYYCGAGTPLNPGAYIYDWSYDYWGRGTLVTVSSDKTHTCPPCPAPEAAGGPSVFLFPPKPKDTLMISRTPEVTCVVVDVSQEDPEVQFNWYVDGVEVHNAKTKPREEQFNSTYRVVSVLTVLHQDWLNGKEYKCKVSNKGLPSSIEKTISKAKGQPREPQVCTLPPSQEEMTKNQVSLSCAVKGFYPSDIAVEWESNGQPENNYKTTPPVLDSDGSFFLVSKLTVDKSRWQEGNVFSCSVMHEALHNRFTQKSLSLSLGGGGGSGGGGSGGGGSGGGGSGGGGSGGGGSGGGGSVKVKFWPRGEEKVVDTSKIAWVLRADKTVMFKYDDNGKKGYGVVLEKDAPKELLDMLARAEREK
In the case of B2, the Kd amounted to 2.61 nM in experiment [1] and 1460 nM in experiment [4]. Further, the koff was 0.00031 s⁻¹ in experiment [1], 0.00175 s⁻¹ in experiment [2] and 0.148 s⁻¹ in experiment [6]. The association rate constant (kon) in experiment [1] is 119000 M⁻¹ s⁻¹; in experiment [5], 102000 M⁻¹ s⁻¹. Further, the KD2 in [3] is 2.08 M. For the same molecule, the ka2 in [3] is 6.98e-05 1/RUs. In [3], this molecule returned a kd2 of 0.000145 s⁻¹.

B3: TPP-66149 (Fc fusion)
chain 1: DVQLVESGGGVVQAGGSLSISCAASGGSLSNYVLGWFRQAPGKEREFVAAINWRGDITIGPPNVEGRFTISRDNAKNTGYLQMNSLAPDDTALYYCGAGTPLNPGAYIYDWSYDYWGRGTLVTVSSDKTHTCPPCPAPEAAGGPSVFLFPPKPKDTLMISRTPEVTCVVVDVSQEDPEVQFNWYVDGVEVHNAKTKPREEQFNSTYRVVSVLTVLHQDWLNGKEYKCKVSNKGLPSSIEKTISKAKGQPREPQVYTLPPCQEEMTKNQVSLWCLVKGFYPSDIAVEWESNGQPENNYKTTPPVLDSDGSFFLYSKLTVDKSRWQEGNVFSCSVMHEALHNHYTQKSLSLSLGGGGGSGGGGSGGGGSGGGGSGGGGSGGGGSGGGGSEVQLVESGGGVVQPGDSLRLSCAASGGTFSTYVMGWFRQAPGKEREFVSAISQNSIHTYYANSVKGRFTISRDNSKNTVYLQLNSLRPEDTALYYCAASRFTSWYTADYEYDYWGQGTLVTVSSA
chain 2: B1 chain 2
notes: IgG4 FALA Fc knob-in-hole, C-terminal T023500029 via 35GS
On to B3, for which the Kd in experiment [1] came out at 8.2 nM; in experiment [4], 1200 nM. Besides, the values for the koff in [1], in experiment [2] and in experiment [6] were 0.000511 s⁻¹, 0.000503 s⁻¹ and 0.104 s⁻¹, respectively. Besides, the on-rate constant (kon) in experiment [1] is 62300 M⁻¹ s⁻¹; in experiment [5], 87000 M⁻¹ s⁻¹. The molecule also displayed a KD2 in experiment [3] of 3.39 M. The ka2 in [3] was 4.37e-05 1/RUs. Besides, the kd2 in experiment [3] was 0.000148 s⁻¹.

B4: T-0263-00_TP117 (antibody, human IgG1, kappa)
heavy 1: not shown
heavy 2: EVQLVESGGGLVQPGGSLRLSCAASGFNIRDTYIHWVRQAPGKGLEWVARIYPTQGYTRYADSVKGRFTISADTSKNTAYLQMNSLRAEDTAVYYCSRWGGEGFYAMDYWGQGTLVTVSSASTKGPSVFPLAPSSKSTSGGTAALGCLVKDYFPEPVTVSWNSGALTSGVHTFPAVLQSSGLYSLSSVVTVPSSSLGTQTYICNVNHKPSNTKVDKKVEPKSCDKTHTCPPCPAPELLGGPSVFLFPPKPKDTLMISRTPEVTCVVVDVSHEDPEVKFNWYVDGVEVHNAKTKPREEQYNSTYRVVSVLTVLHQDWLNGKEYKCKVSNKALPAPIEKTISKAKGQPREPQVCTLPPSRDELTKNQVSLSCAVKGFYPSDIAVEWESNGQPENNYKTTPPVLDSDGSFFLVSKLTVDKSRWQQGNVFSCSVMHEALHNRFTQKSLSLSPG
light: not shown
notes: Full-length IgG1 with knob-in-hole mutations (hole chain H435R, Y436F), no C-terminal fusion
For the molecule B4, in experiment [7], the ka2 is 3.1e-05 1/RUs and the kd2 came to 0.001 s⁻¹. In [8], this molecule gave a Kd of 1300 nM. In addition, the kon in experiment [9] stood at 120000 M⁻¹ s⁻¹. Further, in [10], the koff was 0.16 s⁻¹.

B5: T-0263-00_TP118 (antibody, human IgG1, kappa)
heavy 1: not shown
heavy 2: B4 heavy 2
light: not shown
notes: Full-length IgG1 knob-in-hole with a C-terminal irrelevant ISVD (9GS) on chain 1; control of TP121
Take B5: in [7], the ka2 was 2.3e-05 1/RUs and the kd2 was found to be 0.00054 s⁻¹. The molecule further had a Kd in [8] of 1200 nM. In experiment [9], the kon came to 120000 M⁻¹ s⁻¹. The koff in experiment [10] was 0.15 s⁻¹.
